The text below walks through data of the supplement of paper PMC12042874.

± gives the uncertainty stated by the source.

One data set in a line: amyloid nucleation score (Sup35N fusion, yeast selection) (log enrichment); library NNK3; higher = more nucleation; inactive = no reads after selection. The essentials:
(§1)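 Peptides of 20 random codons, each fused to Sup35N, were expressed in psi-negative yeast. Cells were induced with 100 μM copper sulfate for 24 hours and grown 7 days at 30°C on medium lacking adenine and uracil, and plasmid inserts before and after selection were Illumina-sequenced. Nucleation scores are DiMSum log enrichments of output over input reads, centred on the mode score of non-aggregating sequences, and sequences under 100 input reads were excluded.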
For the substance LTLLR, the amyloid nucleation score result was “inactive”.

The next data set can be described thus: amyloid nucleation score (Sup35N fusion, yeast selection) (log enrichment); library NNK1; higher = more nucleation; inactive = no reads after selection. Summed up: as §1
Consider SDSRVVLPLLIPLSART, for which the amyloid nucleation score was 0.865 ± 0.42.

Regarding GMGGGICSSEKMRCGNVEGV, the amyloid nucleation score is -0.857 ± 0.34. The substance VAVTITYAICDTLILFIEGG had an amyloid nucleation score of 4.08 ± 0.1.

As for LNSIMQIQVWIFTLEMMSPM, the amyloid nucleation score was -1.07 ± 0.98. Same read-out and setting: the result for SLSNCTGKNVLVTLS reads 0.428 ± 1.2; that for YDLNYKDCSLRSVSSVGLQC, 0.099 ± 0.19. Same read-out and setting: the result for NNRNQAMKVYNLVSLIEAKR reads -0.218 ± 1. In turn, SRGHDVRLTACDADGGLGLC registered an amyloid nucleation score of -0.17 ± 0.46. IWGNVSLIRGFCPVKLWSQR registered an amyloid nucleation score of -0.082 ± 0.46.

The substance LRTLPHYNV yielded an amyloid nucleation score of 0.596 ± 1.2.

In turn, VRSNRMTAGTGYWGNSTVKD returned an amyloid nucleation score of -0.65 ± 0.56.

In turn, VIGYWGW had an amyloid nucleation score of -0.164 ± 0.4. The substance ISLCCTSTYLTVSYGTDRS had an amyloid nucleation score of 6.487 ± 0.061. Still for that read-out and setting: as for NRECYYRPGNALNHGFFQIL, the figure is 0.479 ± 1.2. Same read-out and setting: as for NLNFLFFQWSNIMVCHQNQV, the figure is 4.62 ± 0.057.

The substance WFYDAAFTMKVTVAIFVFFR came in with an amyloid nucleation score of 0.675 ± 0.71. On the same count and under the same terms, as for VLKRLRTYVYSIFW, the figure is 0.543 ± 0.33; as for RLLFLFVHVSYGI, 0.014 ± 0.47.

With RQAFIRGGLEAAKGAYHVLG, the amyloid nucleation score is -1.38 ± 2.4. Turning to EMNVSILKHAYSQALSFARW, the amyloid nucleation score was -0.068 ± 0.45.

Take VDCMGKMVLFLPTFGDGFIV: the amyloid nucleation score was -0.123 ± 0.32. The substance YSCFSECYTKMSHTLSKNNL had an amyloid nucleation score of 2.11 ± 0.32. Substance MLVPRSRIRIPACRFQHRLP gave an amyloid nucleation score of -0.064 ± 0.35. The substance VHNNCRWFAGKFPLSRVVLR returned an amyloid nucleation score of 0.553 ± 1.2.

The substance LTYATDSFNRNFHILMHHVP gave an amyloid nucleation score of -0.711 ± 0.74.

In turn, FLCLLMFPIRHRL came in with an amyloid nucleation score of 0.004 ± 0.33.

Substance MSGFTESRCMGRMVALGPFD came in with an amyloid nucleation score of 0.4 ± 1.4. Take SSAFSLRLFDLSLNYFEFDE: the amyloid nucleation score is -0.595 ± 0.68. Still for that read-out and setting: the result for KVLITCCGPKWSCSLAPDEL reads 0.668 ± 0.58; that for MHYGTLSIVV, 0.302 ± 0.3; that for RFVCQPNRWFHNKRGVGRET, 0.653 ± 0.64. The same measure, in the same setting: as for GSPMFLRIYLETYLPTYELS, the figure is 0.739 ± 0.42; as for LLMYLLHSCYNVMHCLCLNF, 0.128 ± 0.21; as for ATWTAWRHVAHFWPWAHAKS, 0.936 ± 0.56. Turning to FMHAGIYL, the amyloid nucleation score is 0.043 ± 1. In turn, SFCSFEF had an amyloid nucleation score of 0.858 ± 0.88. Still for that read-out and setting: the result for STRDQSDVMDRLTGEHHQQW reads 0.363 ± 0.41. On the same count and under the same terms, as for NYREGVVIILNNPDYCRRER, the figure is 6.36 ± 0.091; as for GSATRTPVITQRICLPVGCR, -0.691 ± 0.56.

For IIFKSVNYLLPIVVKNMCGT, the amyloid nucleation score came to 1.16 ± 0.13.

A further data set is described as follows: amyloid nucleation score (Sup35N fusion, yeast selection) (log enrichment); library NNK2; higher = more nucleation; inactive = no reads after selection. The essentials:
as §1
Consider LTLLR, for which the amyloid nucleation score was -0.122 ± 0.42.

As for GKNELYQVS, the amyloid nucleation score turned out to be 0.774 ± 0.41. Substance LVEGCILSRHQESVNLRFCL came in with an amyloid nucleation score of 1.22 ± 0.29.

As to LKTACVDALLH, the amyloid nucleation score turned out to be 0.258 ± 0.26. Substance QSPSL returned an amyloid nucleation score of -0.381 ± 0.79. Consider VRNFCFDYSVWYENGLTWKR, for which the amyloid nucleation score is 0.527 ± 0.66. GMICKWAWVSTGGKGVKCRE: the amyloid nucleation score came out at 0.272 ± 0.43. In the case of HALGGDWHGLGGINS, the amyloid nucleation score is -1.43 ± 0.55. On to VVKLMAMFGRTNVLTLERHL, for which the amyloid nucleation score turned out to be 0.655 ± 0.31. The same measure, in the same setting: the result for LNIIMGSSDFCPESFYKFW reads 0.266 ± 1; that for SSMQPHLVSSVL, 3.7 ± 0.07.

Consider MLSFHLSVVAETMTWWSTRY, for which the amyloid nucleation score was 0.857 ± 0.19. LRKHFWLGCEGAWLVFG returned an amyloid nucleation score of 4.81 ± 0.08. On the same count and under the same terms, the result for GDVDEWCLTGLGLSNIMVGQ reads 1.52 ± 0.58. Still for that read-out and setting: the result for LGPLVYFLFVNIPNQGFFLC reads 1.56 ± 0.16; that for GILVRRYAWSELMNGED, 0.116 ± 0.49. Substance SLKANYGWLISNAWDMFHLG returned an amyloid nucleation score of -0.467 ± 0.74. Same read-out and setting: as for NGDMWKHIKRRQVNNRG, the figure is 0.881 ± 0.67; as for LRGMTLFTPVTLTNSNCMVT, 0.437 ± 0.18; as for NKLFPAWLPMCVFWFYGFLA, -0.138 ± 0.53.

In the case of TFSLAVVYRFDDAFTLRVGD, the amyloid nucleation score came out at 6.135 ± 0.05. Take SKPCGKVIYWKDRLSKLSEK: the amyloid nucleation score result was “inactive”. For NRVGSSGSRYALHRVSSS, the amyloid nucleation score was 4.846 ± 0.045. The substance CLRFC came in with an amyloid nucleation score of -0.453 ± 1.1. As for VVIHLLPSES, the amyloid nucleation score entry is “inactive”. For the substance ESNKRTTCLFH, the amyloid nucleation score turned out to be 0.331 ± 0.32. Still for that read-out and setting: as for MLNSVLAQAMRH, the figure is 1.28 ± 0.53. Substance VEHARGDRCCRQDYGVQQYK registered an amyloid nucleation score of 2.68 ± 0.23. Same read-out and setting: the result for HTSFIMYMYHSRIWHGMYQT reads “inactive”; that for DIWYLICLSQSSGLFLVGVM, -0.55 ± 0.79. TYPMMGQGFC: the amyloid nucleation score came out at 0.131 ± 0.55.

In turn, IVSVYATAIGGVRFRECCIG returned an amyloid nucleation score of -0.09 ± 0.34. Take IRMEFCDAMTICLLKQR: the amyloid nucleation score turned out to be 3.72 ± 0.056. For the substance PARAKRLTAL, the amyloid nucleation score is -0.207 ± 0.29.

As for CLCPTNYDSSRIYLVRC, the amyloid nucleation score result is “inactive”. With RNGLTFRRTYSAYC, the amyloid nucleation score came out at 1.01 ± 0.25. With ELGYCYSFGHSQFFKQSKHG, the amyloid nucleation score amounted to 3.03 ± 0.071. Still for that read-out and setting: the result for TWTHCIGSLIR reads -0.855 ± 0.76; that for FPLLNCKRACLKAAVEAHYR, 0.076 ± 0.61. KVRTLINLRSRVTLRYDLSI had an amyloid nucleation score of -0.237 ± 0.24. On the same count and under the same terms, the result for YDGAIDITTGLFLCFWVCTV reads 3.96 ± 0.047; that for LTIPDFRSGRRRVAQRDLVV, -0.157 ± 0.37. Same read-out and setting: as for LGFFKSGVVH, the entry is “inactive”.

With AYYFVLNVSTNLGNLGRTIL, the amyloid nucleation score came to 4.35 ± 0.11.

VVWCGTYVYHDV gave an amyloid nucleation score of 8.885 ± 0.075.

The substance VRFVINSWLTCVYERNIKLL displayed an amyloid nucleation score of -0.058 ± 0.22. On the same count and under the same terms, the result for LYRAGVAFVCTYFVNSGEF reads 2.61 ± 0.13. Same read-out and setting: the result for SLGNQIQVCISLPSMPVTPW reads 0.512 ± 0.66. YAQWYDCTSSAEKRYKKVLS gave an amyloid nucleation score of -0.473 ± 0.31.

In turn, HRASRMCGINLARPTVMVVT came in with an amyloid nucleation score of 1.9 ± 0.12. On the same count and under the same terms, as for RTYEMKAMRVASWQSS, the figure is 1.9 ± 0.098.

Take IVIPSSK: the amyloid nucleation score result is “inactive”. Same read-out and setting: the result for SWGLRTWF reads 1.06 ± 0.39; that for RSLSLLLVFLAMCAIMVPMR, 8.575 ± 0.04. On the same count and under the same terms, as for KNRRFT, the figure is -0.493 ± 1.1. The same measure, in the same setting: the result for GETVGFKARFMLMHTSFLLR reads 4.902 ± 0.045; that for SGCGCGLGMPTCRRSVRG, 0.631 ± 0.19; that for ILRFEAIYFEIMPHVYKVVK, -0.409 ± 0.38.

MEEGRS: the amyloid nucleation score was determined as 0.525 ± 0.28.

For the substance PSWCS, the amyloid nucleation score stood at 0.33 ± 0.17. In turn, EMSFSLTYSRSRHFRSGGTA yielded an amyloid nucleation score of 6.32 ± 0.064. Still for that read-out and setting: the result for MRSDYTSWVWVCVFMLTLGV reads -0.679 ± 0.32. In turn, TFDLQFELFMGDRTLSLL yielded an amyloid nucleation score of -0.038 ± 0.29. For RDWRANGSCHESSSGLDM, the amyloid nucleation score was 1.6 ± 0.34. In turn, RQEINSYGNTPRRGGPRLRH returned an amyloid nucleation score of -0.093 ± 0.55. On the same count and under the same terms, the result for IQVLVLPISYISIRGQKWRN reads 7.19 ± 0.08. Same read-out and setting: the result for DYSRLSLGICEVDDCTLRMV reads -0.761 ± 0.39; that for SVYHLRLI, -0.494 ± 0.42.

For the substance EARSGVNGRARSMFLIGRYS, the amyloid nucleation score is -0.262 ± 0.63. The same measure, in the same setting: the result for LNTSSYFVIDDFWIIFRRCR reads -0.814 ± 0.55.

QSRWSFKTYYSREKW: the amyloid nucleation score was -0.278 ± 0.39.

For the substance PQLHSLCT, the amyloid nucleation score is -0.214 ± 1.

Substance GLSNLTYDFFPEKPP returned an amyloid nucleation score of -1.45 ± 0.62.

For FREGSSIGFVLPTENVLMT, the amyloid nucleation score stood at 0.256 ± 1.

HGQISLRMWQVRR had an amyloid nucleation score of 5.759 ± 0.052. With LCERYWKALK, the amyloid nucleation score result was “inactive”. For FAFICTR, the amyloid nucleation score entry is “inactive”. IDFLM: the amyloid nucleation score was -0.744 ± 0.39.

In turn, VFSEWWFTANAACSAQCYEW yielded an amyloid nucleation score of 0.789 ± 0.33. The same measure, in the same setting: the result for MRVNECCKAEGSQGRLARLV reads 0.97 ± 0.55. On to CSCHKSSCLRTTFCLEHSSG, for which the amyloid nucleation score was determined as 6.866 ± 0.062. On the same count and under the same terms, the result for CVYEIPKM reads 3.09 ± 0.048. YLFVQEKKRVFRYFRWRHPV returned an amyloid nucleation score of -0.032 ± 0.8.

SDMTNS came in with an amyloid nucleation score of -1.55 ± 0.64.

Regarding FICVCIVKNKGMGRPCN, the amyloid nucleation score amounted to 2.72 ± 0.1. For IIPCRSLFAFNMMVM, the amyloid nucleation score is 0.288 ± 0.53. STIEAGCTVVCA came in with an amyloid nucleation score of 0.24 ± 0.49.

As to VKHVIAHTRG, the amyloid nucleation score was 1.52 ± 0.38. Same read-out and setting: the result for WAVELLLA reads 1.03 ± 0.53; that for NPALNRLMDGVNRFPLKCYV, -0.338 ± 0.23. Still for that read-out and setting: as for GQLGNCLVSAAFLFAFIVLS, the figure is 4.33 ± 0.075; as for IVARHPIGFQLVWGHWLTVA, 0.412 ± 0.26. With MLRGSRWPSSGTFSCDDSKR, the amyloid nucleation score is -0.038 ± 0.45. In turn, GPYFVNYPLKTNSIVLWELA showed an amyloid nucleation score of 0.356 ± 0.8. The substance EFSIHAGLM had an amyloid nucleation score of 0.222 ± 0.46. Still for that read-out and setting: the result for PGSKPPWVSYGNPSTMAIGM reads -0.472 ± 0.79; that for GGNTVSHQK, -0.427 ± 1.1.
